Changes are numbered by the printed parent chain. Numbers in names are those of the source.
B1: 18C7: anti-STn mouse monoclonal, IgG2c κ, from mouse #4436; VH SEQ ID NO: 4, VL SEQ ID NO: 5 (antibody, V domains shown)
VH: QVTLKESGPGILQPSQTLSLTCSFSGFSLSTFGMGVGWIRQPSGKGLEWLAHIWWDDDKYYNPALKSRLTISKDTSKNQVFLKIANVDTADTATYYCARIAYYYGSERDYWGQGTTLTVSS
VL: QIVLTQSPAIMSASPGEKVTMTCSASSSISYMHWYHQKPGTSPKRWIYDTSKLASGVPARFSGSGSGTSYSLTISSMEAEDAATYYCHQRSSYTFGGGTKLEIKR
B2: 10A5: anti-STn mouse monoclonal, IgG2c κ, from mouse #4406; VH SEQ ID NO: 6, VL SEQ ID NO: 7 (antibody, V domains shown)
VH: QVQLKESGPGLVAPSQSLSITCTVSGFSLTSYGVSWVRQPPGKGLEWLGVIWGDGSTNYHSSLISRLSISKDNSKSQVFLKLNSLQTDDTATYYCARAFVYWGQGTLVTVSA
VL: QIVLTQSPAIMSASPGEKVTMTCSASSSVSYIHWYQQKSGTSPKRWIYDTSKLASGVPARFSGSGSGTSYSLTISSMEAEDAATYYCQQWSSNPPMLTFGAGTKLELK
B3: 8C11: anti-STn mouse monoclonal, IgG2b κ, from mouse #4407; VH SEQ ID NO: 8, VL SEQ ID NO: 9 (antibody, V domains shown)
VH: B2 VH with S62A, S68I, A96T, R97K, A98G, V100T
VL: QIVLTQSPAIMSASPGEKVTMTCSASSSVSYMHWYQQKSGTSPKRWIFDTSKLASGVPARFSGSGSGTSYSLTISSMEAEDAATYYCQQWSSNLLTFGAGTKLELK
B4: 2D4: anti-STn mouse monoclonal, IgG2b κ, from mouse #4407; VH SEQ ID NO: 10, VL SEQ ID NO: 11 (antibody, V domains shown)
VH: B2 VH with K5Q, T30I, S35N, H60Q, S62A, S68I, A96T, R97K, A98G, V100A
VL: B3 VL with Y35F, F48Y
B5: S3F: 3F1 variable domains combined with IgG2a constant domains; heavy chain SEQ ID NO: 63, light chain SEQ ID NO: 64 (antibody)
heavy: QVQLQQSDAELVKPGASVKISCKASGYTFTDHAIHWVKQKPEQGLDWIGYISPGNGDIKYNEKFKDKVTLTADKSSSTACMHLNSLTSEDSAVYFCKRSLLALDYWGQGTTLTVSSAKTTAPSVYPLAPVCGDTTGSSVTLGCLVKGYFPEPVTLTWNSGSLSSGVHTFPAVLQSDLYTLSSSVTVTSSTWPSQSITCNVAHPASSTKVDKKIEPRGPTIKPCPPCKCPAPNLLGGPSVFIFPPKIKDVLMISLSPIVTCVVVDVSEDDPDVQISWFVNNVEVHTAQTQTHREDYNSTLRVVSALPIQHQDWMSGKEFKCKVNNKDLPAPIERTISKPKGSVRAPQVYVLPPPEEEMTKKQVTLTCMVTDFMPEDIYVEWTNNGKTELNYKNTEPVLDSDGSYFMYSKLRVEKKNWVERNSYSCSVVHEGLHNHHTTKSFSRTPGK
light: DIVMTQSHKFMSTSVGDRVSITCKASQDVGTNIAWYQQKPGRSPKVLIYSASTRHTGVPDRFTGSGSGTDFTLTISNVQSEDLTDYFCQQYSSFPLTFGVGTKLELKRADAAPTVSIFPPSSEQLTSGGASVVCFLNNFYPKDINVKWKIDGSERQNGVLNSWTDQDSKDSTYSMSSTLTLTKDEYERHNSYTCEATHKTSTSPIVKSFNRNEC

What was measured:
[1] = test system: STn on bovine submaxillary mucin (BSM); test: Anti-STn BSM ELISA, non-treated and periodate-treated wells; type: binding; conditions: for hybridoma screening: specificity for STn: BSM ELISA without and after periodate treatment
Description: Anti-STn serum titer is determined using a murine anti-STn bovine submaxillary mucin (BSM) ELISA together with serum profiles observed by glycan microarray. 96-well plates are coated with 1 μg/well of BSM and incubated overnight at 4° C. O-acetylation of BSM antigen is removed by treating wells with 0.1 M sodium hydroxide. Specific binding to STn is determined by treatment of wells with sodium periodate. Periodate treatment destroys the […] side chain of sialic acid; therefore antibodies raised against STn should not bind to periodate-treated wells. Wells are blocked with PBS 1% ovalbumin (OVA). Serum samples to be assayed are serially diluted in PBS 1% OVA. A commercially available mouse anti-STn monoclonal antibody, 3F1 (SBH Sciences, Natick, Mass.) is used as a positive control. This antibody is also serially diluted in PBS with 1% OVA. A pool of serum from naïve wild type mice is used for the preparation of negative control samples. Detection of anti-STn antibodies present in serum is determined using an HRP-conjugated polyclonal goat anti-mouse IgG antibody (Jackson Immunoresearch, West Grove, Pa.). The reaction is stopped by addition of sulfuric acid (1.6 M). Optical densities are measured at 490 nm using a Spectramax microplate reader (Molecular Devices, Sunnyvale, Calif.). The serum titer is obtained by comparison of OD values with a cutoff value calculated as two standard deviations above the mean of optical density values of the negative control. Sample tests are considered positive if the mean optical density value is greater than the cutoff value.
Binding affinities of 18D2 and 18C7 to STn were compared to commercially available anti-STn antibodies using the BSM ELISA assay described in Example 2. Commercial anti-STn antibodies used for comparison included 3F1 (SBH Sciences, Natick, Mass.,) TAG-72 clone B72.3 (Thermo Fisher Scientific, Waltham, Mass.,) TAG-72 clone CC49 (Santa Cruz Biotechnology, Santa Cruz, Calif.) as well as a negative control antibody against c-myc (Thermo Fisher Scientific, Waltham, Mass.). Each antibody was titrated using a 7-point, 1:5 serial dilution starting from 100 nM. Titrated antibodies were added to BSM ELISA plates containing wells that were non-treated or treated with sodium periodate. Antibody binding was determined using HRP-conjugated polyclonal goat anti-mouse IgG antibody (Jackson Immunoresearch Laboratories, West Grove, Pa.). The reaction was developed using an HRP substrate and stopped with 1.6 M sulfuric acid. Optical densities were measured at 490 nm using a Spectramax microplate reader. […] The half maximal effective concentration (EC50) for each antibody was calculated using a non-linear regression analysis carried out on periodate subtracted data.

MDA-MD-231 STn cells = test: Antibody internalization by fluorescence microscopy cell counts, STn+ cells; type: cell-based, human; conditions: for Net cell counts of cells showing positive internalization: 10 μg/ml antibody; for level of internalization (comparison of antibodies): microscopy
Description: 6-well culture dishes were prepared with collagen-coated coverslips in the center of 4 wells of each dish. Wells were seeded with either 10^5 cells/well of MDA-MD-231 cells or with 10^6 cells/well of MDA-MD-231 STn cells (expressing STn) and cultured for 24 hours.
10 μg/ml antibody solutions were prepared in cell culture media. A separate solution was prepared for each of LA22 antibody (EMD Millipore, Burlington, Mass.) as a positive control for cell surface binding, S3F antibody (internal reagent) as a positive control for STn binding, 8C11, 2D4, 7G9, 10A5 and GB26.16 (QED Bioscience, San Diego, Calif.) as a negative control. Media were removed from wells and 100 μl of each antibody solution was added to separate coverslips. Coverslips were covered with parafilm and incubated for 30 minutes at 4° C. to allow antibody binding. Antibody solutions were removed by washing and fresh media was added to each well. Cells were incubated at 37° C. for 15, 30, 60 or 240 min to allow for antibody internalization.
After incubation, cells were prepared for microscopy. Cells were washed with PBS and fixed with paraformaldehyde fixation buffer (PFA) containing 3% paraformaldehyde and 2% sucrose in PBS for 15 minutes at room temperature. Cells were rinsed again in PBS and treated with blocking buffer made up of PBS with 1% bovine serum albumin (BSA) or with permeabilization buffer made up of blocking buffer with 0.1% TX-100. Cells were incubated in for 30 min at room temperature, rinsed in PBS and treated with secondary antibody (ALEXA FLUOR® 488-labeled goat-anti-mouse IgG) for 2 hours at room temperature. Cells were rinsed again in PBS and treated with DAPI nuclear stain for 5 min at room temperature in the dark. Cells were rinsed again in PBS and mounted for fluorescence microscopy.

OV-90 cells = test: Cell viability assay with secondary antibody-drug conjugate (2° ADC), OV-90; type: cell-based; conditions: with 2° ADC Fab αMFc-CL-MMAF
Description: Cell viability assays are performed to screen anti-STn antibodies of the present invention in the presence and absence of secondary antibody-drug conjugates (2° ADCs). The purpose of the screen is to identify the ability of each anti-STn antibody to inhibit cell growth. Antibodies with potent cell growth inhibition are used to design direct antibody-drug conjugates (ADCs). Using such secondary antibody-drug conjugates (2° ADCs) in cell-based cytotoxic assays can quickly pre-screen many ADC candidates against tumor cells. Based on the assay, a naked antibody candidate is directly added to cells in the presence of a 2° ADC. Internalization of the mAb/2° ADC complex into cells that express a high density of the targeted antigen can achieve a dose-dependent drug release within the cells, causing a cytotoxic effect to kill the cells (e.g., tumor cells), while cells expressing a low density of the targeted antigen are not affected (e.g., normal cells).
To perform cell viability assays, cell lines described in the present application (MDA-MB-231 parental, MDA-MB-231-STn+, and OV-90) are prepared and cultured for the assays. The cell culture is optimized for cell density by plating different densities of cells (e.g., 2,000, 4,000 and 7,500 per well) on a 96-well plate and observing the cell growth for 96 hours. The plating condition in which cells reach around 90% confluence at the end of the 96 hours is identified and the optimal cell number is then used in the final viability assay.
Duplicate or triplicate cell plates for each cell line are used for testing each antibody candidate.
For cell viability assays, data points are collected for each antibody candidate with duplicates for each data point. […]
Cell viabilities are measured by Cell-Titer Glo luminescence based assays.
Three anti-STn monoclonal antibodies (anti-STn antibodies S3F, 7G9 and 2D4) and an anti-EGFR monoclonal antibody LA22 were tested for internalization. […] Cell viability was then measured using CellTitreGlo Luminescent Cell Viability Assay (Promega, Madison, Wis.).

binding to non-treated wells ([1]; BSM ELISA, wells not treated with sodium periodate) | binding to periodate-treated wells ([1]; BSM ELISA, wells treated with sodium periodate) | EC50 ([1]; non-linear regression on periodate subtracted data, 7-point 1:5 dilution from 100 nM) [nM] | Molecule | hybridoma screening: specificity for STn [1] | Net cell counts of cells showing positive internalization (MDA-MD-231 STn cells; 15 min at 37° C.) | Net cell counts of cells showing positive internalization (MDA-MD-231 STn cells; 30 min at 37° C.) | Net cell counts of cells showing positive internalization (MDA-MD-231 STn cells; 60 min at 37° C.) | Net cell counts of cells showing positive internalization (MDA-MD-231 STn cells; 4 hr at 37° C.) | Net cell counts of cells showing positive internalization (MDA-MD-231 STn cells; 4 hr, no perm) | level of internalization (comparison of antibodies) (MDA-MD-231 STn cells) | activity in OV-90 cells (OV-90 cells)
bound non-treated wells | did not bind to periodate-treated wells | 62.5 | B1 | specific for STn | – | – | – | – | – | – | –
– | – | – | B2 | specific for STn | 267 | 346 | 75 | 93 | 97 | – | –
– | – | – | B3 | specific for STn | 934 | 297 | 122 | 49 | 160 | greatest levels of internalization | –
– | – | – | B4 | specific for STn | 1340 | 413 | 533 | 325 | 536 | greatest levels of internalization | lack of effect
– | – | – | B5 | – | 426 | 410 | 350 | 259 | 276 | – | modest activity
